Experimental data reported in patent US20250289893A1 (OXFORD UNIVERSITY INNOVATION, published 2025).

Legend:
[1] = target: T1, chimeric CD1a pool B protein [human CD1a lipid binding domain, mouse CD1d Ig domain] (human; mouse, UniProt P06126 18-201; P11609 205-297, limits assumed); assay: ELISA, 0.1 µg/ml antibody
Method: (§1) CD1a-specific antibodies were identified by ELISA. […] 20 μl/well of peroxidase-conjugated goat anti-species IgG Fc-specific F(ab′)2 fragment (Jackson ImmunoResearch), diluted 1:5000 in block buffer was added and incubated at room temperature for 1 hour, followed by washing with wash buffer.
(§2) The antibodies were titrated through a dilution series and compared to a control rabbit IgG antibody. […] Data shown for purified antibodies.

[2] = target: T1, chimeric CD1a pool B protein [human …; assay: ELISA, 31.6 µg/ml antibody
Method: as §1, §2

[3] = target: T2, human CD1a protein (pool B) (human, UniProt P06126 18-295, limits assumed); assay: ELISA, 0.1 µg/ml antibody
T2 construct: Recombinant protein of the ELISA (coated) and the Biacore T200 titration; whole entry named; also called human CD1a pool B; full length CD1a
Method: as §1
(§3) The antibodies were titrated through a dilution series and compared to a control rabbit IgG antibody.

[4] = target: T2, human CD1a protein (pool B); assay: ELISA, 100 µg/ml antibody
Method: as §1, §3

[5] = target: Chinese variant CD1a protein (human) (UniProt P06126); assay: ELISA, 10 µg/ml antibody
[6] = target: Chinese variant CD1a protein (human) (UniProt P06126); assay: ELISA, 1 µg/ml antibody
[7] = target: T3, human CD1a expressed on cells (human, UniProt P06126 17-327; P61769 21-119); assay: flow cytometry, C1R cells, 1 µg/ml antibody
T3 construct: also called HEK - CD1a; C1R - CD1a
Method: (§4) Binding to proteins expressed on HEK, C1R and MOLT4 cell lines was assessed. […] The C1R-CD1a, C1R-empty vector and MOLT4 cell lines were washed in 1×PBS on the day required. All cell lines were counted and resuspended in 1×PBS and then stained for 30 minutes at 37° C. using the DiI or DiO cellular stains (Invitrogen). Cells were washed with flow cytometry buffer (1% bovine serum albumin, 2 mM EDTA and 0.1% sodium azide in PBS) before mixing 2 DiI-stained and DiO-stained populations together. The cells (20 μl/well) were then added to dilutions of antibody sample (B cell culture supernatant, TAP supernatant, clone supernatant, purified antibody solution) (20 μl/well) and incubated for 1 hour at 4° C. in a flow cytometry assay plate, before being washed with flow cytometry buffer. 10 μl/well of Alexafluor647-conjugated goat anti-species IgG Fc-specific F(ab′)2 fragment (Jackson ImmunoResearch), diluted 1:2500 in flow cytometry buffer, was added and incubated at 4° C. for 30 minutes, followed by washing with wash buffer. The fluorescence intensity was then measured on an iQue screener PLUS.
(§5) Binding was quantified as fold change in fluorescence intensity geomean over background assessed by flow cytometry.

[8] = target: T4, human CD1c expressed on HEK-293 cells (human, UniProt P29017 18-333; P61769 21-119); assay: flow cytometry, HEK-293 cells, 31.6 µg/ml antibody
T4 construct: also called HEK - CD1c
Method: as §4
(§6) HEK-293 cells were transiently transfected with human CD1a, CD1b, CD1c or CD1d and co-transfected with human β2M.

[9] = target: T3, human CD1a expressed on cells; assay: flow cytometry, HEK-293 cells, 31.6 µg/ml antibody
Method: as §4, §6

[10] = target: T5, human CD1d expressed on HEK-293 cells (human, UniProt P15813 20-335; P61769 21-119); assay: flow cytometry, HEK-293 cells, 31.6 µg/ml antibody
T5 construct: also called HEK - CD1d
Method: as §4, §6

[11] = target: T6, human CD1b expressed on HEK-293 cells (human, UniProt P29016 18-333; P61769 21-119); assay: flow cytometry, HEK-293 cells, 31.6 µg/ml antibody
T6 construct: also called HEK - CD1b
Method: as §4, §6

[12] = target: T2, human CD1a protein (pool B); assay: ELISA, 0.316 µg/ml antibody
Method: as §1, §3

[13] = target: T3, human CD1a expressed on cells; assay: flow cytometry, MOLT4 cells, 0.316 µg/ml antibody
Method: (§7) CD1a-specific antibodies were identified by flow cytometry. Binding to proteins expressed on HEK, C1R and MOLT4 cell lines was assessed. […] The C1R-CD1a, C1R-empty vector and MOLT4 cell lines were washed in 1×PBS on the day required. All cell lines were counted and resuspended in 1×PBS and then stained for 30 minutes at 37° C. using the DiI or DiO cellular stains (Invitrogen). Cells were washed with flow cytometry buffer (1% bovine serum albumin, 2 mM EDTA and 0.1% sodium azide in PBS) before mixing 2 DiI-stained and DiO-stained populations together. The cells (20 μl/well) were then added to dilutions of antibody sample (B cell culture supernatant, TAP supernatant, clone supernatant, purified antibody solution) (20 μl/well) and incubated for 1 hour at 4° C. in a flow cytometry assay plate, before being washed with flow cytometry buffer. 10 μl/well of Alexafluor647-conjugated goat anti-species IgG Fc-specific F(ab′)2 fragment (Jackson ImmunoResearch), diluted 1:2500 in flow cytometry buffer, was added and incubated at 4° C. for 30 minutes, followed by washing with wash buffer. The fluorescence intensity was then measured on an iQue screener PLUS.
as §5

[14] = target: Chinese variant CD1a protein (human) (UniProt P06126); assay: ELISA, 0.01 µg/ml antibody
[15] = target: T4, human CD1c expressed on HEK-293 cells; assay: flow cytometry, HEK-293 cells, 1 µg/ml antibody
Method: as §4, §6

[16] = target: T3, human CD1a expressed on cells; assay: flow cytometry, HEK-293 cells, 1 µg/ml antibody
Method: as §4, §6

[17] = target: T5, human CD1d expressed on HEK-293 cells; assay: flow cytometry, HEK-293 cells, 1 µg/ml antibody
Method: as §4, §6

[18] = target: T6, human CD1b expressed on HEK-293 cells; assay: flow cytometry, HEK-293 cells, 1 µg/ml antibody
Method: as §4, §6

[19] = target: T4, human CD1c expressed on HEK-293 cells; assay: flow cytometry, HEK-293 cells, 3.16 µg/ml antibody
Method: as §4, §6

[20] = target: T3, human CD1a expressed on cells; assay: flow cytometry, HEK-293 cells, 3.16 µg/ml antibody
Method: as §4, §6

[21] = target: T5, human CD1d expressed on HEK-293 cells; assay: flow cytometry, HEK-293 cells, 3.16 µg/ml antibody
Method: as §4, §6

[22] = target: T6, human CD1b expressed on HEK-293 cells; assay: flow cytometry, HEK-293 cells, 3.16 µg/ml antibody
Method: as §4, §6

[23] = target: T3, human CD1a expressed on cells; assay: flow cytometry, MOLT4 cells, 10 µg/ml antibody
Method: as §7, §5

[24] = target: T4, human CD1c expressed on HEK-293 cells; assay: flow cytometry, HEK-293 cells
Method: as §4, §6

[25] = target: T5, human CD1d expressed on HEK-293 cells; assay: flow cytometry, HEK-293 cells
Method: as §4, §6

[26] = target: T6, human CD1b expressed on HEK-293 cells; assay: flow cytometry, HEK-293 cells
Method: as §4, §6

[27] = target: T3, human CD1a expressed on cells; assay: flow cytometry, MOLT4 cells, 0.0316 µg/ml antibody
Method: as §7, §5

[28] = target: T3, human CD1a expressed on cells; assay: flow cytometry, MOLT4 cells, 1 µg/ml antibody
Method: as §7, §5

T2 sequence (P06126 18-295 limits assumed): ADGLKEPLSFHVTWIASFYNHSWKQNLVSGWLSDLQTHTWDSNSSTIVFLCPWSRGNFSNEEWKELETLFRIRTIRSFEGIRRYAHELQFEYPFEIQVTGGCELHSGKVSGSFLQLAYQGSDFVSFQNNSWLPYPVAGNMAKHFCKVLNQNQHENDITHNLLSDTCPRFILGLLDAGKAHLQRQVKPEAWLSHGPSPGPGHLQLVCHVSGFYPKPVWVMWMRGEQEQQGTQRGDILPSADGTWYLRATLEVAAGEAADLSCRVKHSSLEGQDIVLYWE
Chain of Chinese variant CD1a protein (human) (P06126 18-295, stated change not applied): as the sequence (P06126 18-295 limits assumed) above
T1 sequence (P06126 other isoform, or with tags, fused parts or gaps mutant limits assumed): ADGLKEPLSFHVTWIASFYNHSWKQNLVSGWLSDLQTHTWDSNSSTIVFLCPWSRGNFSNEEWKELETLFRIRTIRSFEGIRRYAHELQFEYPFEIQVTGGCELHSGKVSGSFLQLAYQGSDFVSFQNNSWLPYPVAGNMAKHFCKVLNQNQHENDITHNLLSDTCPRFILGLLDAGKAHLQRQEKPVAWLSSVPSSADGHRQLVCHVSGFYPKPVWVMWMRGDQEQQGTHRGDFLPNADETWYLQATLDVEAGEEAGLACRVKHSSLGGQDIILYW

B1: 77A (VR11851) (antibody, V domains shown)
VH: QSVEESGGRLVTPGTPLTLTCTVSGFSLSSYAMSWVRQAPGKGLEWIGIISSSGTTYYASWAKGRFTISKTSTTVDLKITSPTTEDTATYFCARVDYYSSGWGGLWGPGTLVTVSS
VL: AVEMTQTPASMSAAVGGTVTIKCQASEDIYSNLAWYQQKPGQPPKLLIYGASTLASGVPSRFKGSGSGTEYTLTISGVQCDDAATYYCQCTYDTSSYGNTFGGGTEMVVE
notes: also called OX77a; antibody 77a
Optical Density (OD) [1]: 1.25 OD
Optical Density (OD) [2]: 1.33 OD
Optical Density (OD) [3]: 1.36 OD
Optical Density (OD) [4]: 1.39 OD
Optical Density (OD) [5]: 0.99 OD
Optical Density (OD) [6]: 0.78 OD
Fluorescence Intensity Geomean (normalized to background) [7]: 10.3 fold over background
Fluorescence Intensity Geomean (normalized to background) [8]: 0.9 fold over background
Fluorescence Intensity Geomean (normalized to background) [9]: 8.2 fold over background
Fluorescence Intensity Geomean (normalized to background) [10]: 1 fold over background
Fluorescence Intensity Geomean (normalized to background) [11]: 1 fold over background
Optical Density (OD) [12]: 1.39 OD
Fluorescence Intensity Geomean (normalized to background) [13]: 15.2 fold over background
Optical Density (OD) [14]: 0.79 OD
Fluorescence Intensity Geomean (normalized to background) [15]: 1 fold over background
Fluorescence Intensity Geomean (normalized to background) [16]: 41.9 fold over background
Fluorescence Intensity Geomean (normalized to background) [17]: 1 fold over background
Fluorescence Intensity Geomean (normalized to background) [18]: 1.1 fold over background
Fluorescence Intensity Geomean (normalized to background) [19]: 0.9 fold over background
Fluorescence Intensity Geomean (normalized to background) [20]: 23.3 fold over background
Fluorescence Intensity Geomean (normalized to background) [21]: 0.9 fold over background
Fluorescence Intensity Geomean (normalized to background) [22]: 0.9 fold over background
Fluorescence Intensity Geomean (normalized to background) [23]: 4.1 fold over background
binding result [24]: no binding (tested: 100 µg/ml (highest tested))
binding result [25]: no binding (tested: 100 µg/ml (highest tested))
binding result [26]: no binding (tested: 100 µg/ml (highest tested))
Fluorescence Intensity Geomean (normalized to background) [27]: 8.7 fold over background
Fluorescence Intensity Geomean (normalized to background) [28]: 13.5 fold over background

B2: 111 (VR12113) (antibody, V domains shown)
VH: QSVEESGGRLVTPGTPLTLTCTASGFSLSTYAMSWVRQAPGKGLEWIGIISSSGSTYYASWAKGRFTISKTSTTVDLKITSPTTEDTATYFCARETWYWLDLWGQGTLVTVSS
VL: AVEMTQTPASVSAAVGGTVTINCQASEDIYSNLAWYQQKPGQPPKLLIYGASTLASGVPSRFKGSGSGTEYTLTISGVQCDDAATYYCQCAYDSSSYGTPFGGGTEVVVK
notes: also called OX111
Optical Density (OD) [1]: 1.25 OD
Optical Density (OD) [2]: 1.35 OD
Optical Density (OD) [3]: 1.06 OD
Optical Density (OD) [4]: 1.12 OD
Optical Density (OD) [5]: 1.41 OD
Optical Density (OD) [6]: 1.44 OD
Fluorescence Intensity Geomean (normalized to background) [7]: 28 fold over background
Fluorescence Intensity Geomean (normalized to background) [8]: 1 fold over background
Fluorescence Intensity Geomean (normalized to background) [9]: 6.3 fold over background
Fluorescence Intensity Geomean (normalized to background) [10]: 1 fold over background
Fluorescence Intensity Geomean (normalized to background) [11]: 1 fold over background
Optical Density (OD) [12]: 1.04 OD
Fluorescence Intensity Geomean (normalized to background) [13]: 27.3 fold over background
Optical Density (OD) [14]: 1.33 OD
Fluorescence Intensity Geomean (normalized to background) [15]: 1.1 fold over background
Fluorescence Intensity Geomean (normalized to background) [16]: 42 fold over background
Fluorescence Intensity Geomean (normalized to background) [17]: 1.1 fold over background
Fluorescence Intensity Geomean (normalized to background) [18]: 1 fold over background
Fluorescence Intensity Geomean (normalized to background) [19]: 1.1 fold over background
Fluorescence Intensity Geomean (normalized to background) [20]: 24.9 fold over background
Fluorescence Intensity Geomean (normalized to background) [21]: 1.1 fold over background
Fluorescence Intensity Geomean (normalized to background) [22]: 1.1 fold over background
Fluorescence Intensity Geomean (normalized to background) [23]: 9.3 fold over background
binding result [24]: no binding (tested: 100 µg/ml (highest tested))
binding result [25]: no binding (tested: 100 µg/ml (highest tested))
binding result [26]: no binding (tested: 100 µg/ml (highest tested))
Fluorescence Intensity Geomean (normalized to background) [27]: 12.4 fold over background
Fluorescence Intensity Geomean (normalized to background) [28]: 31.2 fold over background

B3: 110 (VR12112) (antibody, V domains shown)
VH: QSVEESGGRLVTPGTPLTLTCTVSGFSLSSYAMIWVRQAPGKGLEWIGIINSSDNTHYATWAKGRFTISKTSTTVDLKITSPTTEDTATYFCARDPYDYGYGWYFDLWGPGTLVTVSS
VL: AQVLTQTPSPVSAAVGGTVTINCQASQSVFNNKNLAWYQQKPGQPPKLLIYKASTLASGVSSRFKGSGSGTQFALTISGVQCDDAATYYCQGEFSCSSTDCVTFGGGTEVVVK
notes: also called OX110; antibody 110
Optical Density (OD) [1]: 1.02 OD
Optical Density (OD) [2]: 1.4 OD
Optical Density (OD) [4]: 1.23 OD
Optical Density (OD) [5]: 1.75 OD
Optical Density (OD) [6]: 1.79 OD
Fluorescence Intensity Geomean (normalized to background) [7]: 28.2 fold over background
Fluorescence Intensity Geomean (normalized to background) [8]: 1 fold over background
Fluorescence Intensity Geomean (normalized to background) [9]: 10.9 fold over background
Fluorescence Intensity Geomean (normalized to background) [10]: 1.1 fold over background
Fluorescence Intensity Geomean (normalized to background) [11]: 1.1 fold over background
Optical Density (OD) [12]: 1.18 OD
Fluorescence Intensity Geomean (normalized to background) [13]: 27.1 fold over background
Optical Density (OD) [14]: 1.4 OD
Fluorescence Intensity Geomean (normalized to background) [15]: 1.1 fold over background
Fluorescence Intensity Geomean (normalized to background) [16]: 49.2 fold over background
Fluorescence Intensity Geomean (normalized to background) [17]: 1.1 fold over background
Fluorescence Intensity Geomean (normalized to background) [18]: 1.1 fold over background
Fluorescence Intensity Geomean (normalized to background) [19]: 1.1 fold over background
Fluorescence Intensity Geomean (normalized to background) [20]: 31.5 fold over background
Fluorescence Intensity Geomean (normalized to background) [21]: 1 fold over background
Fluorescence Intensity Geomean (normalized to background) [22]: 1.1 fold over background
Fluorescence Intensity Geomean (normalized to background) [23]: 14.7 fold over background
binding result [24]: no binding (tested: 100 µg/ml (highest tested))
binding result [25]: no binding (tested: 100 µg/ml (highest tested))
binding result [26]: no binding (tested: 100 µg/ml (highest tested))
Fluorescence Intensity Geomean (normalized to background) [27]: 1.6 fold over background
Fluorescence Intensity Geomean (normalized to background) [28]: 33 fold over background
